We go through two molecules from patent publication US20220267415A1 (University of Texas, published 2022).

Values joined by “and” are separate entries in the source; they are usually repeats but may differ in a detail not shown here. Identical values can stand only once. Like-named read-outs stand apart in the source and are kept apart here.

Assay [1] has as its target T1, recombinant SARS-CoV-2 Receptor Binding Domain (RBD) with a his tag (ATUM, Cat. 65639.1.a) (SARS-CoV-2, UniProt P0DTC2 319-541).
In assay [2] the target is T1, recombinant SARS-CoV-2 Receptor Binding …. Nature of the assay: ELISA on coated RBD-his. (ELISA stands for enzyme-linked immunosorbent assay.)
Assay [3] has the same target. This is another data set of the same source.
Assay [4] has as its target T2, SARS-CoV-2 spike protein, wild type, on live virus (SARS-CoV-2-mNG / USA-WA1/2020) (SARS-CoV-2, UniProt P0DTC2 13-1273). As to the kind of experiment: cell-based or functional assay.
The target of assay [5] is T2, SARS-CoV-2 spike protein, wild type, on …. Nature of the assay: cell-based or functional assay. The source holds these as a separate data set.
The target in assay [6] is T3, recombinant Spike protein (Sino Biologicals Cat #40589-V08B1) (SARS-CoV-2, UniProt P0DTC2 13-1213). Nature of the assay: BLI (Octet), avidity to spike. For orientation: In BLI a coated tip is dipped into the sample, and binding shifts an interference pattern.
The target of assay [7] is T3, recombinant Spike protein (Sino …). As to the kind of experiment: ELISA on coated recombinant spike.
For assay [8] the target is unchanged. Nature of the assay: BLI (Octet), His-tagged S on Ni-NTA sensor, avidity.

B1: anti-SARS-CoV2-09 IgM (antibody)
VH: QVQLHQWGAGLLKPSETLSRTCAVYGGSFSGYYWTWIRQAPGKGLEWIGEINHGGSTRYNPSLESRVSISVDTSKKQFSLELRSVTAADTAIYYCARGYDTNWYGDGYNWFDPWDRGTLVTVSS
VL: QSALTQDPSVSVALGQTVRITCQGDSLRGSFASWYRQKPGQAPVLVIFGINNRPSGVPDRFSGSSSGNTASLTITGAQAEDEADYYCNSRESNSNRILFGGGTKVTVL
chain: not shown
As for B1, the EC50 (read off the curve) (usually the concentration giving half of the maximal effect) in assay [1] is approximately 0.4 nM. For the same molecule, the EC50 (usually the midpoint of the concentration-response curve) in assay [2] turned out to be 0.3 nM.

B2: anti-SARS-CoV2-14 IgM (lambda-VL-kappa-CL hybrid light chain) (antibody)
heavy: EVQLQQSGPGLVKPSQTLSLTCAISGDSVSSNSAAWNWIRQSPSRGLEWLGRTYYRSKWYNDYAVSVKSRITINPDTSKNQFSLQLNSVTPEDTAVYYCAREEQQLVHDYYYYGMDVWGQGTMVTVSSGSASAPTLFPLVSCENSPSDTSSVAVGCLAQDFLPDSITFSWKYKNNSDISSTRGFPSVLRGGKYAATSQVLLPSKDVMQGTDEHVVCKVQHPNGNKEKNVPLPVIAELPPKVSVFVPPRDGFFGNPRKSKLICQATGFSPRQIQVSWLREGKQVGSGVTTDQVQAEAKESGPTTYKVTSTLTIKESDWLSQSMFTCRVDHRGLTFQQNASSMCVPDQDTAIRVFAIPPSFASIFLTKSTKLTCLVTDLTTYDSVTISWTRQNGEAVKTHTNISESHPNATFSAVGEASICEDDWNSGERFTCTVTHTDLPSPLKQTISRPKGVALHRPDVYLLPPAREQLNLRESATITCLVTGFSPADVFVQWMQRGQPLSPEKYVTSAPMPEPQAPGRYFAHSILTVSEEEWNTGETYTCVVAHEALPNRVTERTVDKSTGKPTLYNVSLVMSDTAGTCY
VL: QAVVTQPASVSGSPGQSITISCTGTSSDIGAYNYISWYQQHPGKAPKLIIYEVSNRPSGISYRFSGSKSGNTASLTISGLQAEDEANYYCSSYAGSISFGGGTKVTVL
chain: not shown
With B2, the “EC50 (read off the curve)” value in assay [3] is approximately 0.7 nM. In addition, in assay [4], the “EC50 (neutralization of live SARS-CoV-2-mNG)” value was 0.01 µg/ml and 0.011 nM; the “Fold change of neutralization EC50 in nM (IgM-14 against IgG-14)” value worked out at 236 fold; the “Fold change of neutralization EC50 in µg/ml (IgM-14 against IgG-14)” value stood at 39 fold. In addition, the “Neutralization EC50” value in assay [5] was 0.015 µg/mL. Further, in assay [2], the EC50 was 0.7 nM. In assay [6], the “fold change of KD (IgM-14 against IgG-14)” value worked out at 13.6 fold, the “fold change of Kdis (IgM-14 against IgG-14)” value came to 0.26 fold and the “fold change of Kon (IgM-14 against IgG-14)” value is 3.59 fold. Further, in assay [7], the EC50 came to 0.046 nM and the “fold change of ELISA EC50 (IgM-14 against IgG-14)” value came out at 135 fold. In addition, in assay [8], the Kd is 0.102 nM; the koff (as a rule, a measure of how fast the partners let go of each other) was 0.00034 s⁻¹; the kon – broadly, the second-order rate constant of association – turned out to be 3.35e+06 M⁻¹ s⁻¹.
